Here are results for 30 sequences from the nanobody polyreactivity screen of Harvey et al. (2022).

This data set can be described thus: yeast display, Sf9 membrane polyspecificity reagent, FACS + sequencing; frameworks hold sequencing errors. The procedure, abridged: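 In a synthetic yeast display library (Saccharomyces cerevisiae BJ5465), nanobody expression was induced with galactose for 36–48 hours. FACS gates were set low and high (top ~1%) using anti-HA fluorescence for expression and streptavidin fluorescence for binding of the Sf9 membrane reagent. Each polyreactivity label is drawn from the gate of origin.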
For the sequence “QVQLEESGGGLVQAGGSLRLSCAASGIIFRGNAMGWYIQAPGKERELFAAIRFSGGSTYYADSVKGRFTISRDNAKNTVYLQMNSLKPEDTAVYYCAATRRRYGSTTSEYYYWGQGTQVTVSS”, the “polyreactivity (PSR sort gate)” value is “high polyreactivity”.

With “QVQLEESGGGLVQAGGSLRLSCAASGIIFTTYDMGWYRQATGKERELVAAISSSTTNTYYADSVKGRFTISRDNAKNTVYLQMNSLKPEDTAVYYCAAPYKRNAGFDYWGQGTQVTVSS”, the “polyreactivity (PSR sort gate)” value is recorded as “low polyreactivity”. The same measure for “QVQLEESGGGLVQAGGSLRLSCAASGIIFWEYAMGWYRQAPGKERELVAAINARGTRTYYADSVKGRFSISRDNAKNTVYLQMNSLKPEDTAVYYCAADRYGWTRYDSWGQGTQVTVSS”: “high polyreactivity”; for “QVQLEESGGGLVQAGGSLRLSCAASGIIIKYYAMGWYSQAPGKESELVAAISSSGGKTYYADSVKGRFTISRDNAKNTVYLQMKSLKPEDTGVDYCAAQRYVRYKYDYWGQGTQVTVSS”: “high polyreactivity”; for “QVQLEESGGGLVQAGGSLRLSCAASGITFGFYAMGWYRQAPGKERELVASITWRGGSTYYADSVKGRFTISRVNAKNTVYLHMNSLKPEDTAVYYCAAEQYVFRPRAQEITSYDYWGQGTQVTVSS”: “high polyreactivity”. Regarding “QVQLEESGGGLVQAGGSLRLSCAASGITFISYAMGWYRQAPGKERELVAVISKSGGRTYYADSVKGRFTISRDNAKNTVYLQMNSLKPEDTAVYYCAATKRYASGMYYWGQGTQVTVSS”, the “polyreactivity (PSR sort gate)” value was “high polyreactivity”.

Take “QVQLEESGGGLVQAGGSLRLSCAASGITFVTYAMGWYRQAPGKERELVAAISRSGGRTYYADSVKGRFTISRDNAKNTVYLQMNSLKPDDTAVYYCAAERKNKYDYWVQGTQVTVSS”: the “polyreactivity (PSR sort gate)” value is recorded as “high polyreactivity”. The value for “QVQLEESGGGLVQAGGSLRLSCAASGLIFPVYAMGWYRQAPGKERELVASISWNGGSTYYADSVKGRFTISRDNAKNTVYLQMNSLKPEDTAVYYCNKYPVSLWYYSKDYTYDYWGQGTQVTVSS” was “low polyreactivity”; that for “QVQLEESGGGLVQAGGSLRLSCAASGLISSPNAMGWYRQAPGKERELVAAITRRGGSTYYADSVKGRFTISRDNAMNTVYLQINSLKPEDTAVYYCAKATGRPGYDYWGQGTQVTVSS” was “high polyreactivity”; that for “QVQLEESGGGLVQAGGSLRLSCAASGLTFDPYAMGWSRQAPGKERELVAVITSRTGSTYYADSVKGRFTISRDNAKNTVYLQMNSLKPEDTAVYYCAAEIYYYGMYGYDYWGQGTQVTVSS” was “high polyreactivity”. The same measure for “QVQLEESGGGLVQAGGSLRLSCAASGLTFRIYAMGWYRQAPGKERELVATISTRGGSTYYADSVKGRFTISRDNPKNTVYLQMNSLQPEDTAVYYCAASLGWFSGSLYNYWGQGTQVTVSS”: “high polyreactivity”. Take “QVQLEESGGGLVQAGGSLRLSCAASGLTFVRYAMGWYRQAPGKERELVAAISSGGSTNYADSVKGRVTISRDNAKNTVYLQMNSLKPEDTAVYYCAARPPRTYWRYQSDYWGQGTQVTVSS”: the “polyreactivity (PSR sort gate)” value is recorded as “high polyreactivity”.

With “QVQLEESGGGLVQAGGSLRLSCAASGRIFAYYAMGLYRQAPGKERELVAAITTNGGGTYYADSVKGRFTISRDNAKNTVYLQMNSLKPEDTAVYYCNAVKQRSSFYDYWGQGTQVTVSS”, the “polyreactivity (PSR sort gate)” value was “low polyreactivity”.

Turning to “QVQLEESGGGLVQAGGSLRLSCAASGRIFGAYAMGWYRQAPGKERELVAAITSRGGNTYYADSVKGRFTISRDNAKNTVYLQMNSLKPEDTAVYYCAARHDKRRQYYVGESAFDYWGQGTQVTVSS”, the “polyreactivity (PSR sort gate)” value was “low polyreactivity”. Turning to “QVQLEESGGGLVQAGGSLRLSCAASGRIFGWYALGWTRQAAGKESELVAAISNDGSTNYADSVKGRFTSSRDNAKNTVYLQLNSVKPEDTAVSYCNARVYSSRARWGTYDYWGQGNQVTVSS”, the “polyreactivity (PSR sort gate)” value is listed as “high polyreactivity”. Turning to “QVQLEESGGGLVQAGGSLRLSCAASGRIFKGYAMGWYRQATGKETEVVAAISSRGGNTYYADSVKGRFTISRDNAKNTVYLQMNSLKPVDTAVYYCAAVYKWSRYGGYNYWGQGTQVTVSS”, the “polyreactivity (PSR sort gate)” value is given as “low polyreactivity”. The same measure for “QVQLEESGGGLVQAGGSLRLSCAASGRIFRSYAMGWYRQAPGKERELVAAISQRGGRTYYADSVKGRFTISRDNAKNTVYLQMNSLKPEDTAVYYCAKSNPKLGYYYLQGDLYDYWGQGTQVTVSS”: “low polyreactivity”; for “QVQLEESGGGLVQAGGSLRLSCAASGRIFRYYAMGWSRQAPGKERELVAGISRGTSTYYADSVKGRFTISRDNAKNTVYLQMNSLKPEDTAVYYCAKGSIQYFRPYTFYSWGQGTQVTVSS”: “high polyreactivity”. Consider “QVQLEESGGGLVQAGGSLRLSCAASGRIFSRYAMGGYRQAPGKERELVAAITQSGTSTYYADSVKGRFTISRDNAKNTVYLQMNSLKPEDTAVYYCNAYRQYRYDYWGQGTQVTVSS”, for which the “polyreactivity (PSR sort gate)” value is listed as “low polyreactivity”. For “QVQLEESGGGLVQAGGSLRLSCAASGRIFVNYDMGSDRQAPGKERELVADISISGSTDYADSVKGRFTISRDNAKNTVYLQMNSLKPEDTAVYYCATSFYVSDYYVPYEMGYWGQGTQVTVSS”, the “polyreactivity (PSR sort gate)” value is recorded as “low polyreactivity”. As for “QVQLEESGGGLVQAGGSLRLSCAASGRIFVSNAMGWYRQAPGKERELVAAITDSGGSTYYADSVKGRFTISRDNAKNTVYLQMNSLKPEDTAVYYCATRTLFRYPNYGNNLWGYDYWGLGTQVTVSS”, the “polyreactivity (PSR sort gate)” value is on record as “low polyreactivity”. For “QVQLEESGGGLVQAGGSLRLSCAASGRIFYQNAMGWYRQAPGKERQLVADIASGGSTSYADSVKGRFTISRDNAKNTVYIQMNSLKPEDTAVYYCATAVLYGDGWYYYWGQGTQVTVSS”, the “polyreactivity (PSR sort gate)” value is recorded as “low polyreactivity”.

“QVQLEESGGGLVQAGGSLRLSCAASGRIIGGYAMGWYRQAPGKERELVAGIRGGTSTYYADSVKGRFTISRDNAKNTVYLQMNSQKPEDTAVYYCNARSLGRKYDYWGQGTQVTVSS”: the “polyreactivity (PSR sort gate)” value was “low polyreactivity”. The value for “QVQLEESGGGLVQAGGSLRLSCAASGRIIQQYAMGWSRQAPGKDRELVAAISRGGSTYYADSEKGRFTISRDNAKNTVYLLMYSLKPEDTAVYDCNAGVGFTSAPQKYYYWGEGTQVTVSS” was “high polyreactivity”; that for “QVQLEESGGGLVQAGGSLRLSCAASGRIQYNAMGWYRQAPGKEREFVAAISWSGGTTYYADSVKGRFTISRDNAKNTVYLQMNSLKPEDTAVYYCATPYTHWGQGTQVTVSS” was “high polyreactivity”.

In the case of “QVQLEESGGGLVQAGGSLRLSCAASGRLFYSNPMGWYREAPGKEREVVAAISSGASTYYADSVKGRFTISRDNAKNTVYLQMNSLKPEDTAVYYCAVYRPSSYDYGYWGQGTQVTVSS”, the “polyreactivity (PSR sort gate)” value is “low polyreactivity”.

Take “QVQLEESGGGLVQAGGSLRLSCAASGRNLEVYAMGWNRKAPGKERELVAAIRWSDGNTYYADSVKGRFTISRDIAKNTVYLQMNSLKPEDTAVYYCAARTPGGYDWGQGTQVTVSS”: the “polyreactivity (PSR sort gate)” value is “high polyreactivity”. As to “QVQLEESGGGLVQAGGSLRLSCAASGRTFDYYAMGWYRQAPGKERELVAAIRLISGNTYYADSVKGRFTISRDNAKNTVYLQMNSLKPEDTAVYYCAAPSDGVPSLYGGMDYWGQGTQVTVSS”, the “polyreactivity (PSR sort gate)” value is given as “low polyreactivity”. The same measure for “QVQLEESGGGLVQAGGSLRLSCAASGRTFGLNAMGWYRQAPGKERELVAAITYSGGSTYYADSVKGRCTISRDNAKNTVYLHMNSLKPEDTAVYYCAKEVQTYWYHYYYWGHGTQVTVSS”: “high polyreactivity”; for “QVQLEESGGGLVQAGGSLRLSCAASGRTFGTYVMGWNRQATGKHRELVAAISRSGGGTYYADSVKGRFTISRDNEKNTVYLQMNSLKPEDTAVYYCADRRVVYRYYWYSAYDYWGQGTQVTVSS”: “high polyreactivity”.
